Here are results for 16 molecules from patent US20250388666A1 (BRIGHAM AND WOMEN S HOSPITAL, published 2025).

One may read the Kd as the free concentration of one partner at which half of the binding sites on the other are occupied at equilibrium, for simple one-to-one binding.

To fix the notation:
T1: CEACAM1 (Sino Biological) (human, UniProt P13688 35-428, limits assumed)
T1 construct: may be the same as CEACAM1-HIS; also called hCEACAM1; biotinylated soluble CEACAM1
T1 sequence: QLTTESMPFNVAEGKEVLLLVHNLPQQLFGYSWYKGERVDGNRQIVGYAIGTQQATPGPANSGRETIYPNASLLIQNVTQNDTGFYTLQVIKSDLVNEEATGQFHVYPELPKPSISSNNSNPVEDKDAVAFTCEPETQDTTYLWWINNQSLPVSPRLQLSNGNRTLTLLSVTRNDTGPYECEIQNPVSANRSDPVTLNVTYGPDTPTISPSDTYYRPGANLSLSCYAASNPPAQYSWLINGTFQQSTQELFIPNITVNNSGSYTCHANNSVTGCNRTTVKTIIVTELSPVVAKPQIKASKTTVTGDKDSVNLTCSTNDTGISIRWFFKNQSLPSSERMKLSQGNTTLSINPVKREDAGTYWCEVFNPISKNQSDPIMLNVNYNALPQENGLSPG

B1: Parent VH/L16 (antibody, IgG4, V domains shown)
VH: EVQLLESGGGLVQPGGSLRLSCAASGFSFSDYYLYWVRQAPGKGLEWVATISVGGGQTSYADSVKGRFTISRDNSKNTLYLQMNSLRAEDTAMYYCTRGLYYGPAWFAYWGQGTLVTVSS
VL: DIVMTQSPDSLAVSLGERATINCKSSQSLLNSANQKNYLAWYQQKPGQPPKLLIYFASTRESGVPDRFSGSGSGTDFTLTISSLQAEDVAVYYCQSHYPYPFTFGGGTKVEIK
notes: IgG4 S241P, kappa
B2: He1/Parent VL (antibody, IgG4, V domains shown)
VH: EVQLLESGGGLVQPGGSLRLSCAASGFSFSDYYLYWVRQAPGKGLEWVATISVGGGQTSYADSVKGRFTISRDNSKNTLYLQMNSLRAEDTAMYYCTRGLYYGPSWFAYWGQGTLVTVSS
VL: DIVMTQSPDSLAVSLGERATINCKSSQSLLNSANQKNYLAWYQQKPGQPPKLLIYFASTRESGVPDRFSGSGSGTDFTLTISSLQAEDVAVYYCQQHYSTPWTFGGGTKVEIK
notes: IgG4 S241P, kappa
B3: He1/L4#2 (antibody, IgG4, V domains shown)
VH: EVQLLESGGGLVQPGGSLRLSCAASGFSFSDYYLYWVRQAPGKGLEWVATISVGGGQTSYADSVKGRFTISRDNSKNTLYLQMNSLRAEDTAMYYCTRGLYYGPSWFAYWGQGTLVTVSS
VL: DIVMTQSPDSLAVSLGERATINCKSSQSLLNSANQKNYLAWYQQKPGQPPKLLIYFASTRESGVPDRFSGSGSGTDFTLTISSLQAEDVAVYYCQSHYPYPYTFGGGTKVEIK
notes: IgG4 S241P, kappa
B4: He3/L1 (antibody, IgG4, V domains shown)
VH: EVQLLESGGGLVQPGGSLRLSCAASGFSFSDYYLYWVRQAPGKGLEWVATISVGGGQTSYADSVKGRFTISRDNSKNTLYLQMNSLRAEDTAMYYCTRALTYGPAWLAYWGQGTLVTVSS
VL: DIVMTQSPDSLAVSLGERATINCKSSQSLLNSANQKNYLAWYQQKPGQPPKLLIYFASTRESGVPDRFSGSGSGTDFTLTISSLQAEDVAVYYCQSHYPFYYTFGGGTKVEIK
notes: IgG4 S241P, kappa
B5: He1/L19 (antibody, IgG4, V domains shown)
VH: EVQLLESGGGLVQPGGSLRLSCAASGFSFSDYYLYWVRQAPGKGLEWVATISVGGGQTSYADSVKGRFTISRDNSKNTLYLQMNSLRAEDTAMYYCTRGLYYGPSWFAYWGQGTLVTVSS
VL: DIVMTQSPDSLAVSLGERATINCKSSQSLLNSANQKNYLAWYQQKPGQPPKLLIYFASTRESGVPDRFSGSGSGTDFTLTISSLQAEDVAVYYCQSHIYPNFTFGGGTKVEIK
notes: IgG4 S241P, kappa
B6: He1/L20 (antibody, IgG4, V domains shown)
VH: EVQLLESGGGLVQPGGSLRLSCAASGFSFSDYYLYWVRQAPGKGLEWVATISVGGGQTSYADSVKGRFTISRDNSKNTLYLQMNSLRAEDTAMYYCTRGLYYGPSWFAYWGQGTLVTVSS
VL: DIVMTQSPDSLAVSLGERATINCKSSQSLLNSANQKNYLAWYQQKPGQPPKLLIYFASTRESGVPDRFSGSGSGTDFTLTISSLQAEDVAVYYCQSHFPYPLTFGGGTKVEIK
notes: IgG4 S241P, kappa
B7: He1/L1 (antibody, IgG4, V domains shown)
VH: EVQLLESGGGLVQPGGSLRLSCAASGFSFSDYYLYWVRQAPGKGLEWVATISVGGGQTSYADSVKGRFTISRDNSKNTLYLQMNSLRAEDTAMYYCTRGLYYGPSWFAYWGQGTLVTVSS
VL: DIVMTQSPDSLAVSLGERATINCKSSQSLLNSANQKNYLAWYQQKPGQPPKLLIYFASTRESGVPDRFSGSGSGTDFTLTISSLQAEDVAVYYCQSHYPFYYTFGGGTKVEIK
notes: IgG4 S241P, kappa
B8: He1/L2 (antibody, IgG4, V domains shown)
VH: EVQLLESGGGLVQPGGSLRLSCAASGFSFSDYYLYWVRQAPGKGLEWVATISVGGGQTSYADSVKGRFTISRDNSKNTLYLQMNSLRAEDTAMYYCTRGLYYGPSWFAYWGQGTLVTVSS
VL: DIVMTQSPDSLAVSLGERATINCKSSQSLLNSANQKNYLAWYQQKPGQPPKLLIYFASTRESGVPDRFSGSGSGTDFTLTISSLQAEDVAVYYCQSHYPFPYTFGGGTKVEIK
notes: IgG4 S241P, kappa
B9: He1/L16 (antibody, IgG4, V domains shown)
VH: EVQLLESGGGLVQPGGSLRLSCAASGFSFSDYYLYWVRQAPGKGLEWVATISVGGGQTSYADSVKGRFTISRDNSKNTLYLQMNSLRAEDTAMYYCTRGLYYGPSWFAYWGQGTLVTVSS
VL: DIVMTQSPDSLAVSLGERATINCKSSQSLLNSANQKNYLAWYQQKPGQPPKLLIYFASTRESGVPDRFSGSGSGTDFTLTISSLQAEDVAVYYCQSHYPYPFTFGGGTKVEIK
notes: IgG4 S241P, kappa
B10: He1/L4 #1 (antibody, IgG4, V domains shown)
VH: EVQLLESGGGLVQPGGSLRLSCAASGFSFSDYYLYWVRQAPGKGLEWVATISVGGGQTSYADSVKGRFTISRDNSKNTLYLQMNSLRAEDTAMYYCTRGLYYGPSWFAYWGQGTLVTVSS
VL: DIVMTQSPDSLAVSLGERATINCKSSQSLLNSANQKNYLAWYQQKPGQPPKLLIYFASTRESGVPDRFSGSGSGTDFTLTISSLQAEDVAVYYCQSHFPYYYTFGGGTKVEIK
notes: IgG4 S241P, kappa
B11: He1/L5 (antibody, IgG4, V domains shown)
VH: EVQLLESGGGLVQPGGSLRLSCAASGFSFSDYYLYWVRQAPGKGLEWVATISVGGGQTSYADSVKGRFTISRDNSKNTLYLQMNSLRAEDTAMYYCTRGLYYGPSWFAYWGQGTLVTVSS
VL: DIVMTQSPDSLAVSLGERATINCKSSQSLLNSANQKNYLAWYQQKPGQPPKLLIYFASTRESGVPDRFSGSGSGTDFTLTISSLQAEDVAVYYCQSHYPFAFTFGGGTKVEIK
notes: IgG4 S241P, kappa
B12: He1/L18 (antibody, IgG4, V domains shown)
VH: EVQLLESGGGLVQPGGSLRLSCAASGFSFSDYYLYWVRQAPGKGLEWVATISVGGGQTSYADSVKGRFTISRDNSKNTLYLQMNSLRAEDTAMYYCTRGLYYGPSWFAYWGQGTLVTVSS
VL: DIVMTQSPDSLAVSLGERATINCKSSQSLLNSANQKNYLAWYQQKPGQPPKLLIYFASTRESGVPDRFSGSGSGTDFTLTISSLQAEDVAVYYCQSHFPYPFTFGGGTKVEIK
notes: IgG4 S241P, kappa
B13: He1/L17 (antibody, IgG4, V domains shown)
VH: EVQLLESGGGLVQPGGSLRLSCAASGFSFSDYYLYWVRQAPGKGLEWVATISVGGGQTSYADSVKGRFTISRDNSKNTLYLQMNSLRAEDTAMYYCTRGLYYGPSWFAYWGQGTLVTVSS
VL: DIVMTQSPDSLAVSLGERATINCKSSQSLLNSANQKNYLAWYQQKPGQPPKLLIYFASTRESGVPDRFSGSGSGTDFTLTISSLQAEDVAVYYCQSHYPYPYTFGGGTKVEIK
notes: IgG4 S241P, kappa
B14: He1/L6 (antibody, IgG4, V domains shown)
VH: EVQLLESGGGLVQPGGSLRLSCAASGFSFSDYYLYWVRQAPGKGLEWVATISVGGGQTSYADSVKGRFTISRDNSKNTLYLQMNSLRAEDTAMYYCTRGLYYGPSWFAYWGQGTLVTVSS
VL: DIVMTQSPDSLAVSLGERATINCKSSQSLLNSANQKNYLAWYQQKPGQPPKLLIYFASTRESGVPDRFSGSGSGTDFTLTISSLQAEDVAVYYCQSHYPFSFTFGGGTKVEIK
notes: IgG4 S241P, kappa
B15: He1/L3 (antibody, IgG4, V domains shown)
VH: EVQLLESGGGLVQPGGSLRLSCAASGFSFSDYYLYWVRQAPGKGLEWVATISVGGGQTSYADSVKGRFTISRDNSKNTLYLQMNSLRAEDTAMYYCTRGLYYGPSWFAYWGQGTLVTVSS
VL: DIVMTQSPDSLAVSLGERATINCKSSQSLLNSANQKNYLAWYQQKPGQPPKLLIYFASTRESGVPDRFSGSGSGTDFTLTISSLQAEDVAVYYCQSHFPFPFTFGGGTKVEIK
notes: IgG4 S241P, kappa
B16: He3/L2 (antibody, IgG4, V domains shown)
VH: EVQLLESGGGLVQPGGSLRLSCAASGFSFSDYYLYWVRQAPGKGLEWVATISVGGGQTSYADSVKGRFTISRDNSKNTLYLQMNSLRAEDTAMYYCTRALTYGPAWLAYWGQGTLVTVSS
VL: DIVMTQSPDSLAVSLGERATINCKSSQSLLNSANQKNYLAWYQQKPGQPPKLLIYFASTRESGVPDRFSGSGSGTDFTLTISSLQAEDVAVYYCQSHYPFPYTFGGGTKVEIK
notes: IgG4 S241P, kappa

This experiment has as its target T1, CEACAM1 (Sino Biological). In words: SPR single-cycle. How it is done:
To assess the binding of the humanized affinity matured IgGs, single cycle kinetics analysis was performed on crude supernatants using a Biacore T200 running Biacore T200 Control Software V2.0.1 and Biacore T200 Evaluation Software V3.0 (Uppsala, Sweden). Antibodies were diluted in HBS-P+ (GE Healthcare) to a final concentration of […]. At the start of each cycle, antibodies were loaded onto Fc2, Fc3 and Fc4 of the Protein A chip (GE Healthcare). IgGs were captured at a flow rate of 10 μl/min to give an immobilization level (RL) of ˜100 RU (a level calculated to obtain an Rmax of ˜50-150 RU once the analyte is bound). The surface was then allowed to stabilize. Single cycle kinetics data was obtained with CEACAM1 as the analyte at a flow rate of […] to minimize any potential mass transfer effects. Multiple repeats with the parent (VH2 N56Q/Vκ4 S27(f)A) antibody were performed to check the stability of the surface and analyte over the kinetic cycles. The signal from the reference channel Fc1 (no antibody) was subtracted from that of Fc2, Fc3 and Fc4 to correct for differences in non-specific binding to the reference surface. A three point, two-fold dilution range from 25 nM to 100 nM CEACAM 1 without regeneration between each concentration was used. The signal from each antibody blank run (no CEACAM1) was subtracted to correct for differences in surface stability. The association phase for the three injections of increasing concentrations of CEACAM1 was monitored for 200 seconds each time and a single dissociation phase was measured for 300 seconds following the last injection of CEACAM1. Regeneration of the Protein A surface was conducted using two injections of 10 mM glycine-HCL pH 1.5 followed by a stabilization period of 240 seconds.
Take B1: the Kd is 61 nM and the “fold better than Parent (KD)” value amounted to 2.62 fold.
For the molecule B2, the Kd amounted to 544 nM and the “fold better than Parent (KD)” value stood at 1.01 fold.
In the case of B3, binding was put at a Kd of 301 nM and the “fold better than Parent (KD)” value stood at 1.83 fold.
For B4, the Kd came to 62 nM and the “fold better than Parent (KD)” value is 2.57 fold.
B5: the Kd turned out to be 996 nM and the “fold better than Parent (KD)” value was determined as 0.55 fold.
As to B6, binding was characterised by a dissociation constant (Kd) of 264 nM and the “fold better than Parent (KD)” value amounted to 2.09 fold.
The like results for B7 were, in that order, 568 nM and 0.97 fold.
For B8 the same measures were 487 nM and 1.13 fold.
For the molecule B9, binding was characterised by a dissociation constant (Kd) of 341 nM and the “fold better than Parent (KD)” value is 1.62 fold.
In the case of B10, the affinity, expressed as Kd, was 429 nM and the “fold better than Parent (KD)” value was found to be 1.28 fold.
For B11 the same measures were 307 nM and 1.8 fold.
In the case of B12, the Kd was determined as 326 nM and the “fold better than Parent (KD)” value stood at 1.69 fold.
The like results for B13 were, in that order, 374 nM and 1.47 fold.
The like results for B14 were, in that order, 402 nM and 1.37 fold.
For B15, binding was characterised by a dissociation constant (Kd) of 263 nM and the “fold better than Parent (KD)” value is 2.1 fold.
On to B16, for which the Kd was 86 nM and the “fold better than Parent (KD)” value came to 1.85 fold.
